How the values were obtained:
[1] = system: +36 GFP-(GGS)4-ALAL-(GGS)4-Cre-His6
[2] = system: +36 GFP-(GGS)4-ALAL-(GGS)4-mCherry-His6
+36 GFP-(GGS)4-ALAL-(GGS)4-mCherry-His6, sequence (chain, as listed by the source): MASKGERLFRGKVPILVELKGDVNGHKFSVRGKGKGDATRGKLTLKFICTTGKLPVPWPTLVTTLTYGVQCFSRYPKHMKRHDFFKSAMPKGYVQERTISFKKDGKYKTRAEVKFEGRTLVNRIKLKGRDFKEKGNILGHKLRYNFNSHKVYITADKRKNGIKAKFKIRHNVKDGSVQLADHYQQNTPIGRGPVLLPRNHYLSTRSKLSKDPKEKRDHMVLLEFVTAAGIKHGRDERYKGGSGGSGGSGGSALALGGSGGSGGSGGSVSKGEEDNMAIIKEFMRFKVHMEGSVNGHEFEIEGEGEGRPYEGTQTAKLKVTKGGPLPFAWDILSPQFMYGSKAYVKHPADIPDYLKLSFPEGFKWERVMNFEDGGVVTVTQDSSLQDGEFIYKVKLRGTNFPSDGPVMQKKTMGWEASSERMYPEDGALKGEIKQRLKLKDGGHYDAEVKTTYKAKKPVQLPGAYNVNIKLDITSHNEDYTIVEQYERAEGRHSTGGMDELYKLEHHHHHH

+36 GFP-(GGS)4-ALAL-(GGS)4-Cre-His6, sequence (chain, as listed by the source): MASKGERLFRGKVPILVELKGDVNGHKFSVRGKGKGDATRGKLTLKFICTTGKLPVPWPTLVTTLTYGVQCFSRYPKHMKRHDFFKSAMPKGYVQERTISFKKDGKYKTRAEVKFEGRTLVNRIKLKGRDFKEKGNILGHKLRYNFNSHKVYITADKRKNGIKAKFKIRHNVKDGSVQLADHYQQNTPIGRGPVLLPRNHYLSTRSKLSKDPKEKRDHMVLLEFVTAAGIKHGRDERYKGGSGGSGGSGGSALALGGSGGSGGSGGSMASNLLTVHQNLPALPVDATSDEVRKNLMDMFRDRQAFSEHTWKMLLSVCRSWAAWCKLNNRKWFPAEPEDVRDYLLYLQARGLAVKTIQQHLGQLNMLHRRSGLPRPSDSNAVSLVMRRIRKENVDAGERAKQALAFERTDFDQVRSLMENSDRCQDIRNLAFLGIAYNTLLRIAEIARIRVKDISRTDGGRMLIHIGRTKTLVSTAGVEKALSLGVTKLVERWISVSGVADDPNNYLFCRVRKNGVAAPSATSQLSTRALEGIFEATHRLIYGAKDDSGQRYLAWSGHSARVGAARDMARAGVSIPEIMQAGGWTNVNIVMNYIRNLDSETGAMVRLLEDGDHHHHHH

cathepsin B from human liver (Sigma)
cleavage of the fusion protein in vitro (gel) [1]: the +36 GFP-Cre fusion was indeed cleaved into two protein fragments with lengths consistent with separated +36 GFP and Cre
cleavage of the fusion protein in vitro (gel) [2]: Cleavage of +36 GFP-mCherry fusion. ... lane 4: +36 GFP-mCherry fusion after treatment with 500 ng cathepsin B for 45 min at 37 °C

— patent publication US20160280748
